Target: HER2 (UniProt P04626)
Test: SPR

4D5 Fab modified to contain Q39E in VH, Q38K in VL, S183K in the CH1, and V133E in the CL
Kd: 0.75 nM
